Experimental findings from publication PMC3074123 are described below.

In data set [1] the target is EndA(H160G/R209A/K210A) (Streptococcus pneumoniae, UniProt P0A3S3 31-274, H160G;R209A;K210A). Put plainly: EMSA. In general terms: Mobility shift assays separate free from complexed probe on a gel.
The target of data set [2] is EndA(H160G/R127A/K128A) (Streptococcus pneumoniae, UniProt P0A3S3 31-274, H160G;R127A;K128A). Put plainly: EMSA.

B1: 24 bp duplex (dsDNA)
DNA 1: GCAAGGTGCGTGCAGCCTTGGACC
DNA 2: GGTCCAAGGCTGCACGCACCTTGC
As to B1, the binding result in data set [1] and in data set [2] was “no binding” each time.
